Measurements as given in patent US11007356B2, “Ingestible device for delivery of therapeutic agent to the gastrointestinal tract” (Progenity, Inc., priority 2018, dated 2021).

Key:
[1] = Dosing regimen model: required bioavailability for ingestible device (Tables 16, 17); conditions: for Eff Dose: approved dose x bioavailability of the approved route (Table 16)
[2] = in vivo, sc; cited from earlier work

B1: emicizumab (antibody, chains of the INN, looked up, V domains shown)
VH: QVQLVQSGSELKKPGASVKVSCKASGYTFTDNNMDWVRQAPGQGLEWMGDINTRSGGSIYNEEFQDRVIMTVDKSTDTAYMELSSLRSEDTATYHCARRKSYGYYLDEWGEGTLVTVSS
VL: DIQMTQSPSSLSASVGDRVTITCKASRNIERQLAWYQQKPGQAPELLIYQASRKESGVPDRFSGSRYGTDFTLTISSLQPEDIATYYCQQYSDPPLTFGGGTKVEIK
VH2: QVQLVESGGGLVQPGGSLRLSCAASGFTFSYYDIQWVRQAPGKGLEWVSSISPSGQSTYYRREVKGRFTISRDNSKNTLYLQMNSLRAEDTAVYYCARRTGREYGGGWYFDYWGQGTLVTVSS
VL2: B1 VL
Eff Dose [1]: 89.3 mg | Bio Avail (Approved Dosing Info) [2]: 85%

B2: concizumab (antibody, chains of the INN, looked up, V domains shown)
VH: EVQLVESGGGLVKPGGSLRLSCAASGFTFSNYAMSWVRQTPEKRLEWVATISRSGSYSYFPDSVQGRFTISRDNAKNSLYLQMNSLRAEDTAVYYCARLGGYDEGDAMDSWGQGTTVTVSS
VL: DIVMTQTPLSLSVTPGQPASISCKSSQSLLESDGKTYLNWYLQKPGQSPQLLIYLVSILDSGVPDRFSGSGSGTDFTLKISRVEAEDVGVYYCLQATHFPQTFGGGTKVEIK
Eff. Dose ([1]; baseline dose x bioavailability, SC (Table 17), assumed weight 70 kg): 16.3 mg | Bioavail. (Baseline dose) [2]: 93.0%

B3: pegfilgrastim (protein, UniProt P09919 31-207, looked up)
Granulocyte …: TPLGPASSLPQSFLLKCLEQVRKIQGDGAALQEKLVSECATYKLCHPEELVLLGHSLGIPWAPLSSCPSQALQLAGCLSQLHSGLFLYQGLLQALEGISPELGPTLDTLQLDVADFATTIWQQMEELGMAPALQPTQGAMPAFASAFQRRAGGVLVASHLQSFLEVSYRVLRHLAQP
modifications: N-terminal Met; PEG
Eff Dose [1]: 4.2 mg | Bio Avail (Approved Dosing Info) [2]: 70%

B4: evolocumab (antibody, chains of the INN, looked up, V domains shown)
VH: EVQLVQSGAEVKKPGASVKVSCKASGYTLTSYGISWVRQAPGQGLEWMGWVSFYNGNTNYAQKLQGRGTMTTDPSTSTAYMELRSLRSDDTAVYYCARGYGMDVWGQGTTVTVSS
VL: ESALTQPASVSGSPGQSITISCTGTSSDVGGYNSVSWYQQHPGKAPKLMIYEVSNRPSGVSNRFSGSKSGNTASLTISGLQAEDEADYYCNSYTSTSMVFGGGTKLTVL
Eff Dose [1]: 114.8 mg | Bio Avail (Approved Dosing Info) [2]: 82%
